# Assay results reported in publication PMC8699279, “Exercise-Induced Irisin Decreases Inflammation and Improves NAFLD by Competitive Binding with MD2” (Cells, 2021).
# T1: recombinant human MD2 (human, UniProt Q9Y6Y9 19-160)
# T1 construct: myeloid differentiation factor 2 (MD2), human, recombinant; No catalogue number is printed; PDB 2E56 was used only for docking; also called rhMD2; myeloid differentiation factor 2; source: bought: R&D Systems
# T1 sequence: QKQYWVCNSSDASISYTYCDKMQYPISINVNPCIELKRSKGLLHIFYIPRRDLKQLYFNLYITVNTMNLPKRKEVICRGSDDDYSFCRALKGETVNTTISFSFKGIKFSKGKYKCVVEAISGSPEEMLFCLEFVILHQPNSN
# Molecular target: T1, recombinant human MD2
# Assay: SPR; Biacore T200, CM5 chip, target protein amine-coupled; irisin flowed at seven concentrations, 30 μL/min, 200 s association, 200 s dissociation, 25 °C, PBS with 0.5% P20; global fit with a 1:1 Langmuir model
# Details: both partners purified
binder,measurement,value
"recombinant irisin (ligand, Commercial recombinant protein (Phoenix Pharmaceuticals); catalogue number, host and glycosylation not stated. Limits are the conventional 112-aa mature irisin: residues 32-143 of the 212-aa FNDC5 …) DSPSAPVNVTVRHLKANSAVVSWDVLEDEVVIGFAISQQKKDVRMLRFIQEVNTTTRSCALWDLEEDTEYIVHVQAISIQGQSPASEPVLFKTPREAEKMASKNKDEVTMKE",Kd,1.65 nM
